Results published in patent publication US20230357429A1.
Positions count from the first letter of the chain named. Numbers in names are those of the source.

Assays:
Settings in all cases: remark: other sources report otherwise
[1] = molecular target: T1, Human TROP2 ECD (31-274 AA), biotinylated (human), P09758; assay: ELISA, biotinylated TROP2 ECD on neutravidin plate, Fab titrated
T1 chain: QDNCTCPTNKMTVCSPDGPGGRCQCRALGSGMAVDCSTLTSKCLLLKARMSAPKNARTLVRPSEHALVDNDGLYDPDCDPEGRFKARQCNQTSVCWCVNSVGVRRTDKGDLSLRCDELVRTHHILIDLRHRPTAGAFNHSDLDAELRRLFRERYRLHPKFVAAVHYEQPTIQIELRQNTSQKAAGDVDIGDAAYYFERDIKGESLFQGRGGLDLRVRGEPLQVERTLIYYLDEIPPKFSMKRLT

[2] = molecular target: T1, Human TROP2 ECD (31-274 AA), …; assay: ELISA: biotinylated TROP2 captured on neutravidin plate, Fab titrated, HRP secondary antibody
[3] = molecular target: T1, Human TROP2 ECD (31-274 AA), …; assay: ELISA, biotinylated TROP2 ECD on neutravidin plate (BLI cell of the same column: low binding); ELISA: no half-maximal signal up to 1000 nM Fab

Measured: EC50

B1: TBD-4 (anti-TROP2 Fab, LC H91A) (Fab)
light: DIQLTQSPSSLSASVGDRVSITCKASQDVSIAVAWYQQKPGKAPKLLIYSASYRYTGVPDRFSGSGSGTDFTLTISSLQPEDFAVYYCQQAYITPLTFGAGTKVEIKRTVAAPSVFIFPPSDEQLKSGTASVVCLLNNFYPREAKVQWKVDNALQSGNSQESVTEQDSKDSTYSLSSTLTLSKADYEKHKVYACEVTHQGLSSPVTKSFNRGEC
heavy: QVQLQQSGSELKKPGASVKVSCKASGYTFTNYGMNWVKQAPGQGLKWMGWINTYTGEPTYTDDFKGRFAFSLDTSVSTAYLQISSLKADDTAVYFCARGGFGSSYWYFDVWGQGSLVTVSSASTKGPSVFPLAPSSKSTSGGTAALGCLVKDYFPEPVTVSWNSGALTSGVHTFPAVLQSSGLYSLSSVVTVPSSSLGTQTYICNVNHKPSNTKVDKKVEPKSC
modifications: here or on the partner: biotinylated (site not stated)
> 1000 nM: [1] | [2] | [3]

B2: TBD-5 (anti-TROP2 Fab, LC Y92A) (Fab)
light: B1 light with A91H, Y92A
heavy: B1 heavy
modifications: here or on the partner: biotinylated (site not stated)
> 1000 nM: [1] | [2] | [3]
